Data reported in article PMC6549159.

Molecular target: GFP-tagged mDia1ΔN3 (mouse) (UniProt O08808)
Sequence of UniProt O08808 (O08808 543-1192, stated change not applied): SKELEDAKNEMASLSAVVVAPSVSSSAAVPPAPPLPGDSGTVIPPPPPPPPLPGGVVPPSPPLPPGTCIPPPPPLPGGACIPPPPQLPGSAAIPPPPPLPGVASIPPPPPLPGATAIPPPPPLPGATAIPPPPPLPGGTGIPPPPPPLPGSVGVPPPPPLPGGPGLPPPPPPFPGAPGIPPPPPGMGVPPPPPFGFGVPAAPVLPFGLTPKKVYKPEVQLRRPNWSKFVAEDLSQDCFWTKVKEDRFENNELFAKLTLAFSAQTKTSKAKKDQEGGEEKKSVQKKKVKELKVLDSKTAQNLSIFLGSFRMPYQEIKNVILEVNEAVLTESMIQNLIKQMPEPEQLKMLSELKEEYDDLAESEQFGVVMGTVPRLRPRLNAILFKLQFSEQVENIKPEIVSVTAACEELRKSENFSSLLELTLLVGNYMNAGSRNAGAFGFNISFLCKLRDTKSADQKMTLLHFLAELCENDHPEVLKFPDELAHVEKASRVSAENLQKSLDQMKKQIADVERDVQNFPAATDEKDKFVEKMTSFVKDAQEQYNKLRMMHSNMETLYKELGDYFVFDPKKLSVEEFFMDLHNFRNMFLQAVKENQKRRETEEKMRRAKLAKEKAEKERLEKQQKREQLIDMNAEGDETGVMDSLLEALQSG

frequency of MyoG+ cells (immunofluorescence) in C2C12 myotubes co-expressing Phb2 FL and mDia1ΔN3 (mDia1ΔN3 alone: 15%): 53%
Substance: Flag-tagged mouse Phb2 FL (from UniProt O35129 1-299) (natural protein)
